Measured values from publication PMC12097149.

Columns and labels:
[1] = biological target: mouse CARMIL2 Q538E tagged with a Twin-Strep-tag at the N terminus (CARMIL2^QE-OST) (mouse); experiment: affinity purification with mass spectrometry; OST-tagged CARMIL2 purified on Strep-Tactin Sepharose beads from lysates of short-term expanded mouse CD4+ T cells, untreated or treated with pervanadate for 2, 5 and 10 min; label-free quantitative MS, interaction stoichiometries
[2] = biological target: mouse CARMIL2 Q538E (untagged, CARMIL2^QE) (mouse); experiment: co-IP; Immunoprecipitation with anti-CARMIL2 (EM-53) from lysates of short-term expanded mouse CD8+ (OT-I) and CD4+ T cells (Carmil2^QE, Carmil2^QE Cd28-/-), immunoblot with anti-CARMIL2 and anti-CARD11; cells untreated or treated with pervanadate for 2 and 5 min at 37°C

fold increase of the interaction stoichiometry after T cell activation over that in resting cells [1]: 7 fold
percent of the available CARMIL2^QE-OST molecules complexed to CARD11 after 2 min of activation [1]: 12%
fold lower level of complexes in unstimulated Carmil2^QE Cd28-/- CD4+ T cells than in unstimulated Carmil2^QE CD4+ T cells [2]: 2 fold
B1: mouse CARD11 (natural protein)
chain: MPGGGPAMDDYMETLKDEEEALWDNVECNRHMLSRYINPAKLTPYLRQCKVIDEQDEDEVLNAPMLPSKINRAGRLLDILHTKGQRGYVVFLESLEFYYPELYKLVTGKEPTRRFSTIVVEEGHEGLTHFLMNEVIKLQQQVKAKDLQRCELLAKSRQLEDEKKQLSLIRVELLTFQERYYKMKEERDSYNDELVKVKDDNYNLAMRYAQLSEEKNMAVMRSRDLQLEIDQLKHRLNKMEEECKLERNQSLKLKNDIENRPRKEQVLELERENEMLKTKIQELQSIIQAGKRSLPDSDKAILDILEHDRKEALEDRQELVNKIYNLQEEVRQAEELRDKYLEEKEDLELKCSTLGKDCEMYKHRMNTVMLQLEEVERERDQAFHSRDEAQTQYSQCLIEKDKYRKQIRELEEKNDEMRIEMVRREACIVNLESKLRRLSKDNGSLDQSLPRHLPATIISQNLGDTSPRTNGQEADDSSTSEESPEDSKYFLPYHPPRRRMNLKGIQLQRAKSPISMKQASEFQALMRTVKGHEEDFTDGSPSSSRSLPVTSSFSKMQPHRSRSSIMSITAEPPGNDSIVRRCKEDAPHRSTVEEDNDSCGFDALDLDDENHERYSFGPPSIHSSSSSHQSEGLDAYDLEQVNLMLRKFSLERPFRPSVTSGGHVRGTGPLVQHTTLNGDGLITQLTLLGGNARGSFIHSVKPGSLAERAGLREGHQLLLLEGCIRGERQSVPLDACTKEEARWTIQRCSGLITLHYKVNHEGYRKLLKEMEDGLITSGDSFYIRLNLNISSQLDACSMSLKCDDVVHVLDTMYQDRHEWLCARVDPFTDQDLDTGTIPSYSRAQQLLLVKLQRLVHRGNREEADSAHHTLRSLRNTLQPEEMLSTSDPRVSPRLSRASFFFGQLLQFVSRSENKYKRMNSNERVRIISGSPLGSLSRSSLDATKLLTEKHEELDPENELSRNLTLIPYSLVRAFHCERRRPVLFTPTMLAKTLVQKLLNSGGAMEFTICKSDIVTRDEFLRKQKTETIIYSREKNPNTFECIVPANIEAVAAKNKHCLLEAGIGCVRDLIKCKVYPIVLLIRVSEKNIKRFRKLLPRPETEEEFLRVCRLKEKELEALPCLYATVEAEMWSSVEELLRVLKDKIVEEQRKTIWVDEDQL
